In patent US20180217132, “MEASUREMENT METHOD AND MEASUREMENT DEVICE” (KYOCERA CORPORATION, published 2018):

Biological target: Hemoglobin A0 (HbA0) (UniProt P69905;P68871 P69905:2-142,P68871:2-147)
Experiment: SPR; Biacore T200, HBS-P + 1 mM MgCl2 pH 7.4; method of Kd not explicitly stated
Details: tags: none; denatured

Chain of Hemoglobin A0 (HbA0) (P69905 2-142, chain 1 of 2): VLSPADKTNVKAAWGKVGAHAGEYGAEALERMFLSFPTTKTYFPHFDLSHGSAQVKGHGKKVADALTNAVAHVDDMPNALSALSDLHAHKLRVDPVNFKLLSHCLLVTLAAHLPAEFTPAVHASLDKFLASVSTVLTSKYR
Chain of Hemoglobin A0 (HbA0) (P68871 2-147, chain 2 of 2): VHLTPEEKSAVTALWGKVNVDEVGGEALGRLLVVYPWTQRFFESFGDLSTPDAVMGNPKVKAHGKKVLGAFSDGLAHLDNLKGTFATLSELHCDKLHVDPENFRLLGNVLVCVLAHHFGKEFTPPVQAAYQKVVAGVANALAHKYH

B1: RNA aptamer A (ssRNA)
RNA: GGGAUAGGAUCCACAUCUACGUAUUACGGCAUUAUUAGGACCAAUGCUGAGUACGGCGCACAGCUUUUUUCACUGCAGACUUGACGAAGCUUAAAAAAAAAAAAAAAAAA
modifications: 2'-F at A and U
With B1 the Kd was 160 nM.
